Legend:
[1] = test system: A431, IGR-1, IGR-39 and A2058; assay: XTT cell viability assay, controls on all cell lines; assay type: cell-based, human; settings: for cell viability (XTT), controls: all cell lines, treated with NIR-light
Procedure: (§1) The human skin epidermoid carcinoma cell line A431 (ATCC: CRL-259), human embryonic kidney (HEK-293T) cell line (ATCC: CRL-11268) and the human melanoma cell line A2058 (ATCC: CRL-11147) were cultured in RPMI-1640 medium. The human melanoma cell line IGR-39 (DSMZ: ACC 239) and IGR-1 (DSMZ: ACC-236) were cultured in DEME medium. All media were supplemented with 2 mM L-glutamine, 10% (v/v) fetal bovine serum (FBS) and 100 U/mL penicillin-streptomycin; the cells were incubated at 37° C. in a 5% CO2 atm. All media and additives were purchased from Life Technologies, Darmstadt, Germany.
(§2) In addition to the in vitro imaging specificity, the phototoxic activity of scFv-SNAP-IR700 and free IR700 were also investigated using cell proliferation and cell apoptosis assays as described previously (9). Briefly, 2×10^4 cells were seeded in 96-well plates and incubated overnight at 37° C. The cells were treated with different concentrations (0, 12.5, 25, 50, 100, 200 and 400) nM of scFv-425-SNAP, IR700 or equivalent concentration of scFv-SNAP-425-IR700 for 3 h at 37° C. in the dark. Toxic control cultures were incubated with 500 μg/mL zeocin instead of the photosensitizer.
Before light irradiation, cells were washed three times with PBS and fresh phenol red free culture media were added to the cells. Light treatment was performed with a Hydrosun® Typ 750 radiator with a water-containing cuvette and an orange filter OG590, with 140 mW/cm^2, dose: 25 J/cm^2a VIS, 76 J/cm^2 wIRA, exposure time: 15 min, and a spectrum in the range of 580-1400 nm (Hydrosun Medizintechnik GmbH, Mülhelm, Germany). […]
(§3) Cell viability was measured using the cell proliferation kit II (XTT®) (Roche, Mannheim Germany) according to the manufacturer's instructions. […] Cell viability was determined colorimetrically by monitoring the reduction of XTT® to formazan at 450 nm absorbance wavelength and 630 nm reference wavelength using the ELx808 absorbance micro-plate reader (BioTek Instruments GmbH, Bad Friedrichshall, Germany).

[2] = test system: A431, IGR-1, IGR-39 and A2058; assay: Apo-ONE Caspase-3/7 apoptosis assay, controls; assay type: cell-based, human; settings: photosensitizer or fusion protein alone
Procedure: as §2
(§4) Before light irradiation, cells were washed three times with PBS and fresh phenol red free culture media were added to the cells. […]
(§5) Next it was determined whether scFv-SNAP-IR700 has the ability to induce apoptosis using the Apo-ONE® Homogeneous Caspase-3/7 assay (Promega, Mannheim, Germany). […] The activities of caspase-3 and -7 enzymes were analyzed in cell lysates by measuring the fluorescence signal at 485 nm excitation wavelength and 535 nm emission wavelength using the ELISA plate reader ELx808 (Bio-TEK, Bad Friedrichschall, Germany).

[3] = test system: EGFR^+ skin carcinoma cell lines (A431, IGR1 and IGR-39); assay: Flow cytometry binding analysis; set-up: species or system human; settings: EGFR+ skin cancer cells; 30 min on ice
Procedure: Flow cytometry analysis was performed to determine the binding properties of labeled scFv-SNAP-tag fusion protein against skin cancer cell lines. Approximately 4×10^5 cells each of the EGFR-positive skin cancer cell lines IGR-39, IGR-1 and A431 as well as of the EGFR low expressing cell line A2058 were incubated with 0.5 μg of labeled proteins for 30 min on ice. After washing the cells twice with 1.8 mL of PBS in a conventional cell washer, fluorescence signals were detected using a FACSCalibur® device and CellQuest® software (Becton & Dickinson, Heidelberg, Germany) using a 633 nm laser source.

[4] = test system: EGFR low expressing cell line (A2058); assay: Confocal microscopy binding and internalization; assay type: cell-based, human; settings: same conditions
Procedure: (§6) To further monitor the targeted activity of fusion protein, Opera® High Content Screening System (PerkinElmer, Rodgau, Germany) was used to determine the binding and internalization properties of labeled fusion proteins on skin cancer cells. Cells were prepared as described for flow cytometry analysis. Binding activity was analyzed by incubating the cells with labeled fusion proteins for 30 min on ice, while receptor mediate internalization activities was monitored by incubating the cells with the labeled fusion proteins for 2 h at 37° C.

[5] = test system: EGFR-expressing cell lines (A431, IGR1 and IGR-39); assay: Confocal microscopy binding and internalization; assay type: cell-based, human
Procedure: as §6

[6] = test system: A2058 cells (EGFR low expressing); assay: XTT cell viability assay after light treatment; assay type: cell-based, human; settings: same protocol with light, up to 400 nM
Procedure: as §1
(§7) In addition to the in vitro imaging specificity, the phototoxic activity of scFv-SNAP-IR700 and free IR700 were also investigated using cell proliferation and cell apoptosis assays as described previously (9). Briefly, 2×10^4 cells were seeded in 96-well plates and incubated overnight at 37° C. […]
as §3

[7] = test system: EGFR-expressing skin cancer cell lines (A431, IGR-1, IGR-39); assay: XTT cell viability assay, EGFR-expressing lines together; assay type: cell-based, human; settings: with light 580-1400 nm; 0-400 nM
Procedure: as §1, §7, §3

[8] = test system: EGFR low expressing cells (A2058); assay: Apo-ONE Caspase-3/7 apoptosis assay; assay type: cell-based, human; settings: same conditions
Procedure: as §2, §4, §5

[9] = test system: cells expressing EGFR (A431, IGR-1, IGR-39); assay: Apo-ONE Caspase-3/7 apoptosis assay; assay type: cell-based, human; settings: all cells expressing EGFR; with light
Procedure: as §2, §4, §5

C[Si](C)(CCC[N+](CCCS(=O)(=O)[O-])(CCCS(=O)(=O)[O-])CCCS(=O)(=O)[O-])O[Si]1(O[Si](C)(C)CCC[N+](CCCS(=O)(=O)[O-])(CCCS(=O)(=O)[O-])CCCS(=O)(=O)[O-])n2c3c4ccccc4c2N=C2N=C(N=c4c5ccccc5c(n41)=NC1=NC(=N3)c3ccccc31)c1cccc(OCCCOC(=O)NCCCCCC(=O)ON3C(=O)CCC3=O)c12.[Na+].[Na+].[Na+].[Na+] (stereo not shown) [IR700, IRDye®700DX N-hydroxysuccinimide ester, reference compound]
cell viability (XTT), controls [1]: unaffected
caspase activities, controls [2]: no significant elevation of caspase activities

scFv-425-SNAP-tag: unlabeled fusion protein of anti-EGFR scFv-425 (SEQ ID No. 1) and SNAP-tag (SEQ ID No. 2)
cell viability (XTT), controls [1]: unaffected
caspase activities, controls [2]: no significant elevation of caspase activities

B1: scFv-425-SNAP-647: scFv-425-SNAP-tag fusion protein conjugated with BG-Alexa-647 dye, used for flow cytometry and confocal microscopy (conjugate)
scFv: MAQVQLQQSGAELVKPGASVKLSCKASGYTFTSHWMHWVKQRAGQGLEWIGEFNPSNGRTNYNEKFKSKATLTVDKSSSTAYMQLSSLTSEDSAVYYCASRDYDYDGRYFDYWGQGTTVTVSSGGGGSGGGGSGGGGSDIELTQSPAIMSASPGEKVTMTCSASSSVTYMYWYQQKPGSSPRLLIYDTSNLASGVPVRFSGSGSGTSYSLTISRMEAEDAATYYCQQWSSHIFTFGSGTELEIKRMDKDCEMKRTTLDSPLGKLELSGCEQGLHEIKLLGKGTSAADAVEVPAPAAVLGGPEPLMQATAWLNAYFHQPEAIEEFPVPALHHPVFQQESFTRQVLWKLLKVVKFGEVISYQQLAALAGNPAATAAVKTALSGNPVPILIPCHRVVSSSGAVGGYEGGLAVKEWLLAHEGHRLGKP
modifications: left off: small tags and cut ends
labeling of cells (flow cytometry) [3]: rapid and efficient labeling
binding/internalization signal (confocal) [4]: no signal was detected
binding, cell membrane staining (confocal) ([5]; 30 min incubation at 4° C.): homogeneous cell membrane staining
internalization (confocal) ([5]; max. 2 h of incubation at 37° C.): exclusively taken up

B2: scFv-425-SNAP-IR700: IR700 photosensitizer (via BG-PEG24 linker) conjugated to anti-EGFR single-chain variable fragment scFv-425 fused to SNAP-tag (conjugate)
scFv: B1 scFv
modifications: left off: small tags and cut ends
notes: IR700 photosensitizer (via BG-PEG24 linker) conjugated to anti-EGFR single-chain variable fragment scFv-425 fused to SNAP-tag
cell viability (XTT) [6]: no significant reduction in cell viability
viability of EGFR+ cells (XTT) [7]: reduced significantly in a concentration-dependent manner
cell viability (XTT) without light ([1]; without any light treatment): no toxic effects
caspase-3 and caspase-7 activities (apoptosis) [8]: did not have a negative impact
caspase-3 and caspase-7 activities (apoptosis) [9]: triggers apoptosis

Source: patent US11124574B2, “Specific photoimmuno-theranostics for detection and elimination of skin cancer cells” (University of Cape Town, priority 2015, dated 2021)
